Assay results as given in patent publication US20160178646A1, “METHODS FOR DETECTING AMYLOID BETA AMYLOIDOSIS” (Washington University, priority 2011, published 2016).

Test: Aβ SILK tracer kinetics in CSF with compartmental model of Aβ turnover
Format: in vivo, human
Conditions: for FTR faster: cognitively normal, amyloid positive group compared to cognitively normal, amyloid negative group; for FTR, Mean(95% confidence limits) / kex42 (Aβ42 exchange rate), Mean(95% confidence limits): multivariate ANOVA; for FTR (fractional turnover rate): mean ± StDev
Source text: These human studies took place at the Washington University School of Medicine in St. Louis and were approved by the Washington University Human Studies Committee and the General Clinical Research Center (GCRC) Advisory Committee. All participants completed informed written consent. One hundred and one participants were enrolled for these studies comprising 57 men (aged from 60.4 to 87.7) and 44 women (aged 63.8 to 85.2). Deposition of amyloid plaques was quantified in 62 subjects based on the mean cortical binding potential (MCBP) score of [^11C]PIB-PET.^15 PET PIB scans were performed within 3 years before or after the SILK tracer study date. Cognitive status using the Clinical Dementia Rating sum of boxes score (CDR-SB16) and ApoE genotyping^33 was assessed in all subjects.
The procedure for stable isotope amino acid tracer administration and sample collection was previously described.^12 Briefly, intravenous and intrathecal lumbar catheters were placed between 7:00 AM and 9:00 AM, and the collection of samples was started between 8:00 AM and 10:00 AM. After initial CSF and plasma baseline samples were collected, each participant was infused with a bolus of 3 mg/kg L-[U-^13C6] leucine for 10 minutes, followed by a constant infusion (2 mg/kg/h) for the remainder of the first 9 hours. Blood samples (12 mL) were obtained hourly for the first 16 h and every other hour thereafter. CSF samples (6 mL) were obtained hourly throughout each study. Aliquots of plasma and CSF were frozen at −80° C. immediately in 1 mL polypropylene tubes after being collected for subsequent determination of plasma leucine and CSF Aβ isoform peptide enrichment. The sample collection for one subject was truncated at 4 hours; this subject was excluded from the analysis.
All samples were processed and measured in a blinded fashion with data results and individual analysis completed before unblinding to participant's disease state. The procedure for sample preparation, data acquisition and processing were previously described.^34 Briefly, 1 mL of CSF from each hour of collection and media standards were thawed. Aβ was purified and processed for mass spectrometry by immunoprecipitation with a mid-domain binding antibody HJ5.1 (Aβ amino acids 13 to 28). […] The purified Aβ was then digested with Lys-N (Metalloendopeptidase) and isotopic enrichment of Aβ c-terminal isoform specific peptides (Aβ29-38, Aβ29-40, and Aβ29-42) were measured using a nano-liquid chromatography (NanoLC-2D-Ultra system (Eksigent Technologies, CA USA)) coupled to a TSQ Vantage triple quadrupole mass spectrometer (ThermoScientific, San Jose USA) that was equipped with a column-heating nanospray source (Phoenix S&T, Chester Pa. USA). Xcalibur V2.1 was used to collect and quantify the mass spectrometry data for SILK. […] Samples for 100 subjects (including the prior 24 subjects) were analyzed utilizing the more specific and sensitive method34 in this study.
The time and magnitude of the peak maximum was determined by fitting a 2nd order curve to enrichment vs. time over an 11-h interval centered at the approximate peak maximum. The compartmental model previously developed and applied to Autosomal Dominant AD participants was used to determine model-dependent parameters of Aβ turnover kinetics (FIG. 18).^14 Modeling was performed using the Population Kinetics (PopKinetics, version 1.0.1) companion application to the SAAM II modeling program (version 1.2.1, SAAM Institute, University of Washington, Seattle). PopKinetics performed an iterative two-stage approach to optimize kinetic parameters to individual participants as well as the population as a whole by including a term that represents the population mean and standard deviation for each adjustable parameter such that variability of the kinetic parameters across the population is minimized. […] The model consists of a plasma leucine pool, a subsystem for production of Aβ through APP and C99, turnover of Aβ, and transport of Aβ to CSF.

Substance | FTR faster | FTR, Mean(95% confidence limits) (CDR = 0 Amyloid+) | FTR, Mean(95% confidence limits) (CDR = 0 Amyloid−) | FTR, Mean(95% confidence limits) (CDR > 0 Amyloid+) | FTR, Mean(95% confidence limits) (CDR > 0 Amyloid−) | mean FTR (not significantly different by univariate analysis of amyloid status) | correlation between annualized change in fibrillar amyloid by PET PIB and FTR Aβ42 (R) (Amyloid positive and Amyloid negative participants) | exchange rate constant (amyloid negative participants) | FTR (fractional turnover rate) (amyloid negative participants) | exchange rate constant (amyloid positive participants) | FTR (fractional turnover rate) (amyloid positive participants) | FTR (clinically normal amyloid negative group) | FTR (clinically normal amyloid positive group) | deposition rate constant (into amyloid plaques) (difference of FTR, clinically normal amyloid positive minus negative) | increase in exchange of newly synthesized soluble Aβ42 (in amyloidosis) | kex42 (Aβ42 exchange rate), Mean(95% confidence limits) (Amyloid+) | FTR, Mean(95% confidence limits) (Amyloid+ participants, CSF SILK) | kex42 (Aβ42 exchange rate), Mean(95% confidence limits) (Amyloid−) | FTR, Mean(95% confidence limits) (Amyloid− participants, CSF SILK)
Aβ40: naturally occurring amyloid-beta isoform Aβx-40, where x is any N-terminal cleavage site; endogenous, measured as biomarker | 17% | CDR = 0 Amyloid+ 0.096(0.083-0.109) | CDR = 0 Amyloid− 0.082(0.068-0.096) | CDR > 0 Amyloid+ 0.074(0.067-0.081) | CDR > 0 Amyloid− 0.094(0.083-0.106) | 0.082±0.022 | – | – | – | – | – | – | – | – | – | – | – | – | –
Aβ42: naturally occurring amyloid-beta isoform Aβx-42, where x is any N-terminal cleavage site; endogenous, measured as biomarker | 57% | – | – | – | – | – | 0.56 | 0.006±0.032 pools/h | 0.094±0.031 pools/h | 0.049±0.054 pools/h | 0.112±0.035 pools/h | 0.091 pool/h | 0.143 pool/h | 0.052 pool/h | ten-fold increase | Amyloid+ 0.059(0.042-0.076) | Amyloid+ 0.124 (0.112-0.135) | Amyloid− 0.006(−0.016-0.029) | Amyloid− 0.101 (0.086-0.115)
